For the assay, the target named is T1, His-tagged cytoplasmic part of AtoS (232–608aa, cyto-AtoS) (Escherichia coli K-12, UniProt Q06067 232-608).
T1 construct: AtoS of Escherichia coli K-12, cytoplasmic part, residues 232-608; also called His-cyto-AtoS; His-AtoS; source: E. coli BL21 [DE3], purified (Ni2+-NTA agarose)
T1 sequence (looked up): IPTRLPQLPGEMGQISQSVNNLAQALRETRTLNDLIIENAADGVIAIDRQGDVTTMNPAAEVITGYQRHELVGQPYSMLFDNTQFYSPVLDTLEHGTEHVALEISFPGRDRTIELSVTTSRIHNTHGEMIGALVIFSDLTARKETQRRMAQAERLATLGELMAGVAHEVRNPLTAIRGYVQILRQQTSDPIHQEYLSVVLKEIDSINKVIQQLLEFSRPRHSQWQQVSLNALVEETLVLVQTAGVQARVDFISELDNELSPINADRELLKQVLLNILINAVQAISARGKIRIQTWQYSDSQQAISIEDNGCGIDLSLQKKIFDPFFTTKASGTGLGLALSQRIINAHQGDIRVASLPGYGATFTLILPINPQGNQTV
In words: pull-down; GST-MinD (5 μM) with His-cyto-AtoS (5 μM) in 50 mM Hepes pH 7.4, 150 mM KCl, room temperature 30 min; His-cyto-AtoS held on HisPure cobalt resin, 1 h at 4 °C; washed with 20 mM imidazole, eluted with 300 mM imidazole; Western blot with anti-GST and anti-His. The conditions noted are these: both partners purified. A general note: In western blotting, separated proteins are transferred to a membrane and probed.

B1: GST-MinD (natural protein, Escherichia coli K-12, UniProt P0AEZ3 1-270, looked up)
chain: MARIIVVTSGKGGVGKTTSSAAIATGLAQKGKKTVVIDFDIGLRNLDLIMGCERRVVYDFVNVIQGDATLNQALIKDKRTENLYILPASQTRDKDALTREGVAKVLDDLKAMDFEFIVCDSPAGIETGALMALYFADEAIITTNPEVSSVRDSDRILGILASKSRRAENGEEPIKEHLLLTRYNPGRVSRGDMLSMEDVLEILRIKLVGVIPEDQSVLRASNQGEPVILDINADAGKAYADTVERLLGEERPFRFIEEEKKGFLKRLFGG
notes: MinD of Escherichia coli K-12; ORF amplified from E. coli K-12 genomic DNA; also called GST-tagged MinD; source: dialyzed against 50 mM Hepes pH 7.4, 150 mM KCl, 10% glycerol
As for B1, the binding result is reported as “binds”.

(Values after publication PMC10963238, “The bacterial division protein MinDE has an independent function in flagellation” (The Journal of Biological Chemistry, 2024).)
